The data set concerns the molecule itself. As to the kind of experiment: sedimentation velocity AUC, 150 mM NaCl, pH 6.0; self-association.

B1: mouse galactocerebrosidase (mGalC), recombinant (enzyme)
chain: YVLDDSDGLGREFDGIGAVSGGGATSRLLVNYPEPYRSEILDYLFKPNFGASLHILKVEIGGDGQTTDGTEPSHMHYELDENYFRGYEWWLMKEAKKRNPDIILMGLPWSFPGWLGKGFSWPYVNLQLTAYYVVRWILGAKHYHDLDIDYIGIWNERPFDANYIKELRKMLDYQGLQRVRIIASDNLWEPISSSLLLDQELWKVVDVIGAHYPGTYTVWNAKMSGKKLWSSEDFSTINSNVGAGCWSRILNQNYINGNMTSTIAWNLVASYYEELPYGRSGLMTAQEPWSGHYVVASPIWVSAHTTQFTQPGWYYLKTVGHLEKGGSYVALTDGLGNLTIIIETMSHQHSMCIRPYLPYYNVSHQLATFTLKGSLREIQELQVWYTKLGTPQQRLHFKQLDTLWLLDGSGSFTLELEEDEIFTLTTLTTGRKGSYPPPPSSKPFPTNYKDDFNVEYPLFSEAPNFADQTGVFEYYMNNEDREHRFTLRQVLNQRPITWAADASSTISVIGDHHWTNMTVQCDVYIETPRSGGVFIAGRVNKGGILIRSATGVFFWIFANGSYRVTADLGGWITYASGHADVTAKRWYTLTLGIKGYFAFGMLNGTILWKNVRVKYPGHGWAAIGTHTFEFAQFDNFRVEAAR
notes: also called rmGALC; rmGalC
Take B1: the binding result is on record as “binds”.
